The source of these data is publication PMC10828404.

The target of the assay is ACE2 receptor on ACE2-expressing HEK 293T cells (UniProt Q9BYF1). Put plainly: flow cytometry on cells. A general note: Flow cytometry measures light scatter and fluorescence of single cells or particles in a stream.
Chain of UniProt Q9BYF1 (Q9BYF1 18-805): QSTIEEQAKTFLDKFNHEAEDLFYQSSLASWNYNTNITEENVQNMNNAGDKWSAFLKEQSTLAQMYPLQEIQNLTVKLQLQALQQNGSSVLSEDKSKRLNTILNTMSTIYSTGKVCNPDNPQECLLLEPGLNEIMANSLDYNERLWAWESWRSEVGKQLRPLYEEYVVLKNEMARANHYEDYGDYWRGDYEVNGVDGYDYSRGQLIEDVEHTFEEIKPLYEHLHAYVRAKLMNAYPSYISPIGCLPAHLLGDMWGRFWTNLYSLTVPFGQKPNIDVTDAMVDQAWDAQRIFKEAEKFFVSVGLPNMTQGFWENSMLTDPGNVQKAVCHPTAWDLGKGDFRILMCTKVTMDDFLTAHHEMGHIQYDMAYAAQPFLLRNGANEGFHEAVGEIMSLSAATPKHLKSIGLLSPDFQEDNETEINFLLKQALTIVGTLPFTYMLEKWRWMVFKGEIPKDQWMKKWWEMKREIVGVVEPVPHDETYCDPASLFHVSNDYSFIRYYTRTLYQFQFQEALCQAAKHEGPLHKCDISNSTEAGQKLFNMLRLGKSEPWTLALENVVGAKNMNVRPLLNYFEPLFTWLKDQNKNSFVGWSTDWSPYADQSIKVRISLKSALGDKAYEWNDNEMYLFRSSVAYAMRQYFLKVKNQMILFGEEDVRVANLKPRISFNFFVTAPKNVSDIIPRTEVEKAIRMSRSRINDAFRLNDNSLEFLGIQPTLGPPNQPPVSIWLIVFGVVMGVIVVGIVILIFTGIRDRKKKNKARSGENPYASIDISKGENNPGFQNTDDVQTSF

Regarding “DNA-VLP-Cy5-30x (icosahedral DNA origami displaying 30 copies of the SARS-CoV-2 RBD and 5 copies of Cy5)”, the fold increase in median fluorescence intensity (corrected for Cy5 brightness per RBD) against monomeric RBD-Cy5 turned out to be 10 fold.
